Changes are numbered by the printed parent chain. Values belong to the binder of their own block, whether it stands above or below them.
Legend:
[1] = molecular target: BTN2A1 (WT) and BTN3A1 (Glu106-Ala) co-expressed on NIH-3T3 cells (human) (UniProt Q7KYR7); assay: flow cytometry on NIH-3T3 cells co-transfected with BTN2A1 WT and BTN3A1 Glu106-Ala, no zoledronate
[2] = molecular target: BTN2A1 (Ser44-Arg) and BTN3A1 (WT) co-expressed on NIH-3T3 cells (human) (UniProt Q7KYR7); assay: flow cytometry on NIH-3T3 cells co-transfected with BTN2A1 Ser44-Arg and BTN3A1 WT, zoledronate (100 µM)
[3] = molecular target: BTN2A1 (Ser44-Arg) and BTN3A1 (WT) co-expressed on NIH-3T3 cells (human) (UniProt Q7KYR7); assay: flow cytometry on NIH-3T3 cells co-transfected with BTN2A1 Ser44-Arg and BTN3A1 WT, no zoledronate
[4] = molecular target: BTN2A1 (WT) and BTN3A1 (Glu106-Ala) co-expressed on NIH-3T3 cells (human) (UniProt Q7KYR7); assay: flow cytometry on NIH-3T3 cells co-transfected with BTN2A1 WT and BTN3A1 Glu106-Ala, zoledronate (100 µM)
[5] = molecular target: full-length human BTN3A1 on transfected cells (human) (UniProt O00481); assay: flow cytometry, γδTCR tetramer-PE on BTN3A1-transfected NIH-3T3 cells treated with isotype IgG1κ (black number); SAv control 25
[6] = molecular target: BTN2A1 (Ser44-Arg) and BTN3A1 (Glu106-Ala) co-expressed on NIH-3T3 cells (human) (UniProt Q7KYR7); assay: flow cytometry on NIH-3T3 cells co-transfected with BTN2A1 Ser44-Arg and BTN3A1 Glu106-Ala, zoledronate (100 µM)
[7] = molecular target: BTN2A1 (WT) and BTN3A1 (WT) co-expressed on NIH-3T3 cells (human) (UniProt Q7KYR7); assay: flow cytometry on NIH-3T3 cells co-transfected with BTN2A1 WT and BTN3A1 WT, no zoledronate
[8] = molecular target: BTN2A1 (WT) and BTN3A1 (WT) co-expressed on NIH-3T3 cells (human) (UniProt Q7KYR7); assay: flow cytometry on NIH-3T3 cells co-transfected with BTN2A1 WT and BTN3A1 WT, zoledronate (100 µM)
[9] = molecular target: BTN2A1 (Ser44-Arg) and BTN3A1 (Glu106-Ala) co-expressed on NIH-3T3 cells (human) (UniProt Q7KYR7); assay: flow cytometry on NIH-3T3 cells co-transfected with BTN2A1 Ser44-Arg and BTN3A1 Glu106-Ala, no zoledronate
[10] = molecular target: BTN2A1-BTN3A1-zipper ectodomain complex (construct #1, long linker version with high affinity zippers) (human); assay: SPR, equilibrium; BTN2A1-BTN3A1 ectodomain complex immobilised, soluble TCR injected
[11] = molecular target: BTN2A1 ectodomain homodimer, disulfide-linked (C-terminal Cys247, acidic or basic leucine zipper) (human) (UniProt Q7KYR7); assay: SPR, soluble TCR over immobilised BTN2A1 homodimer, KD at equilibrium
[12] = molecular target: full-length human BTN3A1 on transfected cells pre-treated (cross-linked) with anti-BTN3A mAb clone 20.1 (human); assay: flow cytometry, FRET (YG 670/30) between TCR tetramer-PE and anti-BTN3A 20.1-AF647 on BTN3A1+ NIH-3T3 cells; with IgG1κ-AF647 the gate holds 0.02, with SAv 0
Chain of full-length human BTN3A1 on transfected cells pre-treated (cross-linked) with anti-BTN3A mAb clone 20.1 (human) (O00481 30-513): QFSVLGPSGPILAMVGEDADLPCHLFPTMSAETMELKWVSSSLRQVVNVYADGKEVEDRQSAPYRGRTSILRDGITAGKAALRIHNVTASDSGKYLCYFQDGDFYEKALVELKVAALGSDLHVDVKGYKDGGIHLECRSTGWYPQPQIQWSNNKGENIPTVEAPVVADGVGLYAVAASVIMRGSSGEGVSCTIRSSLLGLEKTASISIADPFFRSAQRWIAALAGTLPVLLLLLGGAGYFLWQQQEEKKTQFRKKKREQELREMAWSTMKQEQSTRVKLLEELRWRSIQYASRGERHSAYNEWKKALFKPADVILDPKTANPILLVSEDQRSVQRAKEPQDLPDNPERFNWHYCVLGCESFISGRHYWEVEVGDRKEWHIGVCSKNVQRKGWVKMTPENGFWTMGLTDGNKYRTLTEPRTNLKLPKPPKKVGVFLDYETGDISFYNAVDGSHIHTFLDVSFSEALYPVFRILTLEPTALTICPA

Chain of full-length human BTN3A1 on transfected cells (human) (O00481 30-513): as above
Chain of BTN2A1 (WT) and BTN3A1 (WT) co-expressed on NIH-3T3 cells (human) (Q7KYR7 29-527, chain 1 of 2): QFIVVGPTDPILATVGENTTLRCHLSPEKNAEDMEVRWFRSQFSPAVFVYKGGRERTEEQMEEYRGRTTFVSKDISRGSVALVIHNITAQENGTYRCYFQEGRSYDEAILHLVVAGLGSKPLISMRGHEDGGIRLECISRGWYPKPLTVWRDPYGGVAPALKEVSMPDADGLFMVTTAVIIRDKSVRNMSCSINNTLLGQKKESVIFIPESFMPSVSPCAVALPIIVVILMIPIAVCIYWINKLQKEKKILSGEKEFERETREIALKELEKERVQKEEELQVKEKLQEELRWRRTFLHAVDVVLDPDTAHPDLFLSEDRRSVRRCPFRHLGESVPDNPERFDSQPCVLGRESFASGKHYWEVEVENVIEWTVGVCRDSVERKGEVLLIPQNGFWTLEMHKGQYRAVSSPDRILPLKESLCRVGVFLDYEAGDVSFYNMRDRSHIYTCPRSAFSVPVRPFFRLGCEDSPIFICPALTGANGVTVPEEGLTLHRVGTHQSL
Chain of BTN2A1 (WT) and BTN3A1 (WT) co-expressed on NIH-3T3 cells (human) (chain, as listed by the source, chain 2 of 2): as the sequence (O00481 30-513) above
Chain of BTN2A1 (WT) and BTN3A1 (Glu106-Ala) co-expressed on NIH-3T3 cells (human) (Q7KYR7 29-527 limits assumed, chain 1 of 2): as the sequence (Q7KYR7 29-527, chain 1 of 2) above
Chain of BTN2A1 (WT) and BTN3A1 (Glu106-Ala) co-expressed on NIH-3T3 cells (human) (chain, as listed by the source E106A E106A limits assumed, chain 2 of 2): as the sequence (O00481 30-513) above, with E106A counted along it
Chain of BTN2A1 (Ser44-Arg) and BTN3A1 (Glu106-Ala) co-expressed on NIH-3T3 cells (human) (Q7KYR7 29-527 S72R limits assumed, chain 1 of 2): as the sequence (Q7KYR7 29-527, chain 1 of 2) above, with S44R counted along it
Chain of BTN2A1 (Ser44-Arg) and BTN3A1 (Glu106-Ala) co-expressed on NIH-3T3 cells (human) (chain, as listed by the source S44R E106A S44R E106A limits assumed, chain 2 of 2): as the sequence (O00481 30-513) above, with E106A counted along it
Chain of BTN2A1 (Ser44-Arg) and BTN3A1 (WT) co-expressed on NIH-3T3 cells (human) (Q7KYR7 29-527 S72R, chain 1 of 2): as the sequence (Q7KYR7 29-527, chain 1 of 2) above, with S44R counted along it
Chain of BTN2A1 (Ser44-Arg) and BTN3A1 (WT) co-expressed on NIH-3T3 cells (human) (chain, as listed by the source S44R S44R, chain 2 of 2): as the sequence (O00481 30-513) above
Chain of BTN2A1 ectodomain homodimer, disulfide-linked (C-terminal Cys247, acidic or basic leucine zipper) (human) (Q7KYR7 29-248, chain 1 of 2): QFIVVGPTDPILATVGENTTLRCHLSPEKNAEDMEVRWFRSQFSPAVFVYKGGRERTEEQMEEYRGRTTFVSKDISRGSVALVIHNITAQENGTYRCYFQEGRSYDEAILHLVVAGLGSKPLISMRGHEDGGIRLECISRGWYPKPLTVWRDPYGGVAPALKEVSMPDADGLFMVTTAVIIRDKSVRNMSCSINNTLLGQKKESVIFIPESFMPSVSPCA
Chain of BTN2A1 ectodomain homodimer, disulfide-linked (C-terminal Cys247, acidic or basic leucine zipper) (human) (Q7KYR7 29-248, chain 2 of 2): as the sequence (Q7KYR7 29-248, chain 1 of 2) above

B2: soluble G115 Vγ9Vδ2+ TCR Glu52δ-Ala (TCR, from a related filing, V domains shown)
V domain 1: AIELVPEHQTVPVSIGVPATLRCSMKGEAIGNYYINWYRKTQGNTMTFIYRAKDIYGPGFKDNFQGDIDIAKNLAVLKILAPSERDEGSYYCACDTLGMGGEYTDKLIFGKGTRVTVEP
V domain 2: AGHLEQPQISSTKTLSKTARLECVVSGITISATSVYWYRERPGEVIQFLVSISYDGTVRKESGIPSGKFEVDRIPETSTSTLTIHNVEKQDIATYYCALWEAQQELGKKIKVFGPGTKLIITD
MFI of PE (GFP+ gate) [5]: 32 | Kd [11]: 93 µM | Kd [10]: 140 µM

B3: G115 Vγ9Vδ2+ TCR tetramer with combined His85γ-Ala and Glu52δ-Ala mutations (TCR, from a related filing, V domains shown)
V domain 1: B2 V domain 1
V domain 2: B2 V domain 2 with H85A
MFI of PE (GFP+ gate) [5]: 38

B4: G115 Vγ9Vδ2+ TCR tetramer Lys108γ-Ala (TCR, from a related filing, V domains shown)
V domain 1: B2 V domain 1 with A52E
V domain 2: B2 V domain 2 with K108A
MFI of PE (GFP+ gate) [5]: 25

More lines, now with the values ahead:

mean fluorescence intensity of TCR tetramer (black gate) [1]: 7210 | mean fluorescence intensity of TCR tetramer (black gate) [2]: 28100 | mean fluorescence intensity of TCR tetramer (black gate) [3]: 10800 | mean fluorescence intensity of TCR tetramer (black gate) [4]: 23300 | MFI of PE (GFP+ gate) [5]: 33 | mean fluorescence intensity of TCR tetramer (black gate) [6]: 26600 | mean fluorescence intensity of TCR tetramer (black gate) [7]: 635 | mean fluorescence intensity of TCR tetramer (black gate) [8]: 1700 | mean fluorescence intensity of TCR tetramer (black gate) [9]: 11300 | Kd [10]: 740 µM
B1: soluble G115 Vγ9Vδ2+ TCR His85γ-Ala (TCR, from a related filing, V domains shown)
V domain 1: B2 V domain 1 with A52E
V domain 2: B2 V domain 2 with H85A

Kd [11]: 81 µM | % cells in the FRET gate [12]: 34%
B5: soluble G115 Vγ9Vδ2+ TCR Lys53δ-Ala (TCR, from a related filing)
TCR delta: AIELVPEHQTVPVSIGVPATLRCSMKGEAIGNYYINWYRKTQGNTMTFIYREADIYGPGFKDNFQGDIDIAKNLAVLKILAPSERDEGSYYCACDTLGMGGEYTDKLIFGKGTRVTVEPRSQPHTKPSVFVMKNGTNVACLVKEFYPKDIRINLVSSKKITEFDPAIVISPSGKYNAVKLGKYEDSNSVTCSVQHDNKTVHSTDFEVKTDSTDHVKPKETENTKQPSKSCHKPKAIVHTEK
TCR gamma: AGHLEQPQISSTKTLSKTARLECVVSGITISATSVYWYRERPGEVIQFLVSISYDGTVRKESGIPSGKFEVDRIPETSTSTLTIHNVEKQDIATYYCALWEAQQELGKKIKVFGPGTKLIITDKQLDADVSPKPTIFLPSIAETKLQKAGTYLCLLEKFFPDVIKIHWEEKKSNTILGSQEGNTMKTNDTYMKFSWLTVPEKSLDKEHRCIVRHENNKNGVDQEIIFPPIKTDVITMDPKDNCSKDANDTLLLQLTNTSA
